Our source for the hydrolysis of suc-GGL-amc by rabbit 26S proteasomes with ubiquitinated E6AP values is paper PMC2796264.

This test deals with 26S proteasome purified from rabbit muscle (rabbit (endogenous in muscle)).

Substance “polyubiquitinated E6AP (from UniProt P0CG47 1-76)” returned a hydrolysis of suc-GGL-amc by rabbit 26S proteasomes with ubiquitinated E6AP of less than 4 fold.
